# Assay results published in US11731099B2, “Method for controlling encapsulation efficiency and burst release of water soluble molecules from nanoparticles and microparticles produced by inverse flash nanoprecipitation” (The Trustees of Princeton University, priority 2018, dated 2023).
# Assay: Burst release of lysozyme from coated nanoparticles in release media
# Type: physicochemical
# Details: PBS with 0.2 wt % Tween-20 versus PBS, 37° C.
substance,measurement,value
lysozyme,increase of burst release in presence of surfactant,25%
